This is an account of results in publication PMC2196183.

Where “and” joins values, the source holds several entries; their conditions need not be identical. Equal values may be shown once.

This assay has as its target GSK3 binding protein (GBP) on beads (Xenopus). Put plainly: pull-down.

B1: dishevelled (dsh), radiolabeled (natural protein)
chain: MAETKVIYHLDEEETPYLVKVPVPATDIRLRDFKAALGRGHAKYFFKAMDQDFGVVKEEISDDNAKLPCFNDRVVSWLASSEGSQPDSAPPAPATEVRPEPPPPVPPPIPPPPAERTSGIGDSRPPSFHPNVSGSTEQLDQDNESVISMRRDRVRRRESSEQAGVGRGVNGRTERHLSGYESSSTLLTSEIETSICDSEEDDTMSRFSSSTEQSSASRLLKRHRRRRKQRPPRLERTSSFSSVTDSTMSLNIITVTLNMEKYNFLGISIVGQSNERGDGGIYIGSIMKGGAVAADGRIEPGDMLLQVNDINFENMSNDDAVRVLRDIVHKPGPIVLTVAKCWDPSPQGYFTLPRNEPIHPIDPAAWVSHSAALSGSFPVYPGSASMSSMTSSTSVTETELSHALPPVSLFSLSVHTDLASVVKVMASPESGLEVRDRMWLKITIPNAFLGSDVVDWLYHHVEGFQDRREARKFASNLLKAGFIRHTVNKITFSEQCYYIFGDLTGCENYMTNLSLNDNDGSSGASDQDTLAPLPLPGASPWPLLPTFSYQYQAPHPYSTQPPAYHELSSYSYGMGSAGSQHSEGSRSSGSNRSDGGRGMQKDDRSGVAGVGGGDSKSGSGSESEYSTRSSIRRVGGGEAGPPSERSTSSRLPPHHPPSVHSYAAPGVPLSYNPMMLMMMPPPPLPPPGVCPPNSSVPPGAPPLVRDLASVPPELTATRQSFHMAMGNPSEFFVDVM
modifications: [35S]methionine label
With B1, the fold increase in binding with 1 μM CK1ε against buffer- or GSK3-treated extracts was 4 fold and 5 fold.
